Two molecules from patent US20240122983A1 (SHATTUCK LABS, published 2024) can be followed below.

Where two headings read alike, the source gives them in different places.

For assay [1], the target named is T1, recombinant mouse mFLT3 protein (mouse, UniProt Q00342 28-544, limits assumed).
T1 sequence (looked up): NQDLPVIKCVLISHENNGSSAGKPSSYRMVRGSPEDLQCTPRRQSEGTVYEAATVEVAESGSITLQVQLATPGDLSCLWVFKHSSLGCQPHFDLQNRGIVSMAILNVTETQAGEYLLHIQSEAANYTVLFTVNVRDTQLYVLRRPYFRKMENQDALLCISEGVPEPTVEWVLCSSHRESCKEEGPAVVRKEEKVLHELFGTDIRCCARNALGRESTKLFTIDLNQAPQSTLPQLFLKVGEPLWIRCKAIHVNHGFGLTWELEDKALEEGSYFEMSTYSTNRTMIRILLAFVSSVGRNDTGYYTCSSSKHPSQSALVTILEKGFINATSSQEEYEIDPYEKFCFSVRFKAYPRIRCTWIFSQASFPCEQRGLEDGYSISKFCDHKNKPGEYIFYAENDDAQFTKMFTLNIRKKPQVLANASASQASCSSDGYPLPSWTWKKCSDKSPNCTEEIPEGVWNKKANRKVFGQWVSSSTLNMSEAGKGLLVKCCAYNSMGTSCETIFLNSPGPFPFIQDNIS
Nature of the assay: Octet biolayer interferometry, mFLT3-his captured on the sensor. An excerpt: Octet was used to determine on-/off-rates and binding affinities to the target receptors.
(In general: BLI is a label-free optical method that tracks binding on a fibre tip over time.)

For assay [2], the target named is T2, anti-mIgG.
T2 construct: capture antibody of the mFc ELISA; also called Capture Ab: anti-mIgG(10ug/ml)
The experiment in a line: ELISA: plate-bound anti-mIgG (10ug/ml), detection anti-mIgG-HRP (1:1000). An excerpt: (§1) Recombinant mFLT3L protein was used to generate a standard curve. […] A mouse whole IgG was used to generate a standard curve. […] Recombinant m4-1BBL protein was used to generate a standard curve.

For assay [3], the target named is T2, anti-mIgG. The assay is described as above.
From the text: as §1
Recombinant mFLT3L protein was used to generate a standard curve. […] A mouse whole IgG was used to generate a standard curve. […] Recombinant mOX40L protein was used to generate a standard curve.
The source holds these as a separate data set.

Assay [4] deals with T3, recombinant mouse m4-1BB protein (mouse, UniProt P20334 24-187).
T3 sequence (looked up): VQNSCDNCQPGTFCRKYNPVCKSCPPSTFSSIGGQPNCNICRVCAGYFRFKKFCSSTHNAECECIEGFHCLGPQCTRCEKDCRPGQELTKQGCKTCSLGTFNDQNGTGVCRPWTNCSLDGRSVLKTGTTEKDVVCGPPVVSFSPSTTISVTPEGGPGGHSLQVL
Nature of the assay: ELISA: plate-bound m41BB (3.3ug/ml), detection anti-m41BBL (1:1000) and anti-goat IgG (1:10,000).
From the text: as §1
Background: In an ELISA, binding on a coated surface is turned into a signal by an enzyme label.

Assay [5] concerns the target T3, recombinant mouse m4-1BB protein. Nature of the assay: Dual ELISA: capture anti-FLT3L (R&D AF427), detection with m41BB-His (Acro), tertiary anti-His/HRP (Abcam). How it is done: Capture was performed with an anti-FLT3L antibody, followed by detection of the co-stimulatory domain with a his-tagged recombinant protein, and visualized using an anti-his/HRP antibody.

The EC50 (read off the curve) is the concentration at which the effect is half-maximal.

B1: mCD40L-Fc (Acro) (Fc fusion, mouse, UniProt P27548 112-260, looked up)
fusion chain: MQRGDEDPQIAAHVVSEANSNAASVLQWAKKGYYTMKSNLVMLENGKQLTVKREGLYYVYTQVTFCSNREPSSQRPFIVGLWLKPSSGSERILLKAANTHSSSQLCEQQSVHLGGVFELQAGASVFVNVTEASQVIHRVGFSSFGLLKL
notes: soluble part fused to Fc; also called commercially available mCD40L-Fc (Acro Biosystems)
Regarding B1, the binding result in assay [1] is recorded as “no binding (tested: concentration not printed)”.

B2: mFLT3L-Fc-4-1BBL chimeric protein (Fc fusion, murine;mouse (printed as mFc), UniProt P49772 27-189, looked up)
chain: GTPDCYFSHSPISSNFKVKFRELTDHLLKDYPVTVAVNLQDEKHCKALWSLFLAQRWIEQLKTVAGSKMQTLLEDVNTEIHFVTSCTFQPLPECLRFVQTNISHLLKDTCTQLLALKPCIGKACQNFSRCLEVQCQPDSSTLLPPRSPIALEATELPEPRPRQVPRDCGCKPCICTVPEVSSVFIFPPKPKDVLTITLTPKVTCVVVDISKDDPEVQFSWFVDDVEVHTAQTQPREEQFNSTFRSVSELPIMHQDWLNGKEFKCRVNSAAFPAPIEKTISKTKGRPKAPQVYTIPPPKEQMAKDKVSLTCMITDFFPEDITVEWQWNGQPAENYKNTQPIMNTNGSYFVYSKLNVQKSNWEAGNTFTCSVLHEGLHNHHTEKSLSHSPGKRTEPRPALTITTSPNLGTRENNADQVTPVSHIGCPNTTQQGSPVFAKLLAKNQASLCNTTLNWHSQDGAGSSYLSQGLRYEEDKKELVVDSPGLYYVFLELKLSPTFTNTGHKVQGWVSLVLQAKPQVDDFDNLALTVELFPCSMENKLVDRSWSQLLLLKAGHRLSVGLRAYLHGAQDAYRDWELSYPNTTSFGLFLVKPDNPWE
notes: extracellular domain;domain: hinge-CH2-CH3 Fc domain; Expressed in 293 cells, purified on protein A; also called murine FLT3L-Fc-4-1BBL
B2: the “EC50 (read off the curve)” value in assay [2] was approximately 7 nM; in assay [3], approximately 7 nM; in assay [4] it was approximately 9 nM; in assay [5] it was approximately 1 nM.
